Test results: patent US20100292303A1, “GENE EXPRESSION PROFILE FOR PREDICTING OVARIAN CANCER PATIENT SURVIVAL” (priority 2007, published 2010)

Assays:
[1] = tested on: ovarian cancer cells SKOV3; assay: SKOV3 ovarian tumor growth and microvessel density in nude mice; assay type: in vivo
Procedure: The MAGP2 siRNA molecule had the following sequence: 5′-[…]-3′ (sense; SEQ ID NO: 1) and 5′-[…]-3′ (antisense; SEQ ID NO: 2). Five stable clones were selected for each group. A total of 5×10^5 cells from each clone were injected subcutaneously into the posterior neck region of 5 nude mice (6 to 8 week-old female nude mice, Charles River, Mass.). After 4 weeks, the mice were sacrificed and the tumors developed from each mouse were removed and weighed. They samples were subsequently fixed in formalin and processed for histological evaluation. MAGP2 expression in tumor tissues was evaluated using a rabbit anti-human MAGP2 antibody and the microvessel density was determined by immunolocalization of CD34+ blood vessels using a goat anti-mouse polyclonal antibody (FIG. 8A). Significant difference in the weight of the tumors between the MAGP2 siRNA and the control group were found as determined by Mann-Witney U test (FIG. 8B). A p value <0.05 was considered as significant.

αvβ3 integrin receptor = αvβ3 integrin receptor (human, UniProt P06756 31-1048; P05106 27-788); assay: cell-based or functional assay
Sequence of αvβ3 integrin receptor (P06756 31-1048, chain 1 of 2): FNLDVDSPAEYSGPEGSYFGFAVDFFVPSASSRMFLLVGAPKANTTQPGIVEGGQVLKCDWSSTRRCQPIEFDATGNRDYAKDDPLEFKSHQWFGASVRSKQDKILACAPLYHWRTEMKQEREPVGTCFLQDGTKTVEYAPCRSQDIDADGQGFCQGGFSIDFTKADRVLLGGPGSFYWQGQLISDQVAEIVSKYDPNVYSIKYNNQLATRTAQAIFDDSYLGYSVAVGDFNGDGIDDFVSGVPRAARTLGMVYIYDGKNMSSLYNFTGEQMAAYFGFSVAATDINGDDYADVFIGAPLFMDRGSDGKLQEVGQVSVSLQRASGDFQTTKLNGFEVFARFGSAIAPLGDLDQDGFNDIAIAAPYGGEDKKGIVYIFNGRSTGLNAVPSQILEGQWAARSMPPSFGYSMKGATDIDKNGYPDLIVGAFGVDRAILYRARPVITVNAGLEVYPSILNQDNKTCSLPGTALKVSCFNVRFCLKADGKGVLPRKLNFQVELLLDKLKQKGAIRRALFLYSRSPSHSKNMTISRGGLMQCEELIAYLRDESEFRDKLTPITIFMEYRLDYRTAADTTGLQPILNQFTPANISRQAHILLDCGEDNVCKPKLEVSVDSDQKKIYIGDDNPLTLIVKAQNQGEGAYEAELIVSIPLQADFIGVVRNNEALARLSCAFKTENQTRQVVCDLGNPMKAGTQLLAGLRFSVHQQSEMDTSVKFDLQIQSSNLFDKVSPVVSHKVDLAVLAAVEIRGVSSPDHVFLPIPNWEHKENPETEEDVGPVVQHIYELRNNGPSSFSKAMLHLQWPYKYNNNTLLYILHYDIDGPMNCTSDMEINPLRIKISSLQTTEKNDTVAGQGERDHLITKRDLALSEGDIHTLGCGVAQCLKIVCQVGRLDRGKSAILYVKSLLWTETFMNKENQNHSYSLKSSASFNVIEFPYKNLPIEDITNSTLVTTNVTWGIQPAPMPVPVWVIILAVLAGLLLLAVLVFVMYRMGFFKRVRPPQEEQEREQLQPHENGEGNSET
Sequence of αvβ3 integrin receptor (P05106 27-788, chain 2 of 2): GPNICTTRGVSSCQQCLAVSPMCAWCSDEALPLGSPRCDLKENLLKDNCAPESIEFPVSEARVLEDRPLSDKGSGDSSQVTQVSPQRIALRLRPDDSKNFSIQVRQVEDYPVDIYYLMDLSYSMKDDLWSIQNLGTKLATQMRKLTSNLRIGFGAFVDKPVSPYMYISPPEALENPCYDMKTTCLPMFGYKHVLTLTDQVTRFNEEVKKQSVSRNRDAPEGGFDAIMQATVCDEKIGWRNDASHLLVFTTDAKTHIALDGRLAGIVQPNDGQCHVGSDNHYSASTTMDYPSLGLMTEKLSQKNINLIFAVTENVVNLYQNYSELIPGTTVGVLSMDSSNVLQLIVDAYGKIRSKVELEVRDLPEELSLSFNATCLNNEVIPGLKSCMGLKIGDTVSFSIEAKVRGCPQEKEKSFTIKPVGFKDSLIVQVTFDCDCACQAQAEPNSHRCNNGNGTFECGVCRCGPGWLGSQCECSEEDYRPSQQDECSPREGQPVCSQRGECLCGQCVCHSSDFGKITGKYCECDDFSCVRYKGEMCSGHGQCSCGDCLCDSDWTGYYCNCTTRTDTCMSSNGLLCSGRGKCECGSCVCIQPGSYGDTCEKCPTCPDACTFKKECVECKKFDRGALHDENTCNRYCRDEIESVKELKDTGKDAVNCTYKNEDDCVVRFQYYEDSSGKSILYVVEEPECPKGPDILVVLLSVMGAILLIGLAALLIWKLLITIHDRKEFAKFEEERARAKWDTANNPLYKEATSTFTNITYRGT

A224 cells = assay: A224 ovarian cancer cell adhesion on recMAGP2 coated wells; assay type: cell-based; details: plated on recMAGP2 coated wells, relative to control wells; P<0.0005
From the text: (§1) Cell Lines and Culture Conditions. A224, UCI107 and OVCA429 ovarian cancer cell lines were maintained in RPMI (Invitrogen Life Technologies Inc, Carlsbad, Calif.) supplemented with 10% fetal bovine serum (Gemini Bio-Products, Woodland, Calif.) and 1% L-glutamine (Invitrogen Life Technologies).
(§2) Screening a serous ovarian cancer cell line panel for MAGP2 expression by qRT-PCR (FIG. 4A) and western blot, as well as αvβ3 receptor status through FACs analysis (FIG. 4B, select cell lines only), facilitated the selection of cell lines amenable for downstream examination. Quantitative RT-PCR was performed as described in Example 1. Among cell lines expressing MAGP2, only the SKOV3 cell line co-expressed the αvβ3 receptor. Two cell lines, A224 and OVCA429, were positive for αvβ3, yet lacked measurable levels of MAGP2. These cell lines were chosen for subsequent analyses involving the recombinant protein along with UCI107, which was negative for both the receptor and MAGP2.
(§3) The effect of recMAGP2 on adhesion was evaluated for A224 and UCI107 cell lines.

UCI107 cells = assay: UCI107 ovarian cancer cell adhesion on recMAGP2; assay type: cell-based; details: UCI107 negative for αvβ3 receptor and MAGP2
From the text: as §1, §2, §3

OVCA429 cells = assay: OVCA429 cell survival under increasing concentrations of recMAGP2; assay type: cell-based; details: 200 ng/ml recMAGP2, 96 hours; P<0.01
From the text: as §1
Based on the pathway analysis, αvβ3 mediated signaling was implicated in ovarian tumor cell survival through the stimulation of critical cell-cycle checkpoint regulators. To assess this observation, OVCA429 cells were cultured under increasing concentrations of purified recMAGP2 and harvested at 24-hour intervals.

HUVE cells [2] = assay: HUVE cell motility assay (FluoroBlok insert, recMAGP2 as chemoattractant); assay type: cell-based, human; details: 2.5 hours, compared to medium alone, P<0.05
Procedure: Cell motility was evaluated for HUVE cells (5×10^4) by adding them to the top chamber of a BD Falcon HTS FluoroBlok insert with a PET membrane with eight […] pore (BD Biosciences) in […] of medium with 0.2% FBS. The inserts were placed into the bottom chamber wells of a 24-well plate containing medium with increasing concentrations of recombinant MAGP2. After 2.5 hr, cells that migrated through the pores of the membrane to the bottom chamber were stained with calcein […] (Molecular Probes, Eugene, Oreg.) in PBS for 30 min at 37° C. The fluorescence of migrated cells was quantified using a fluorometer set at 485 nm excitation and 530 nm emission. Parallel control experiments were performed using the MAGP2 elution buffer. HUVECs motility was mediated through αvβ3 integrin, cells were pre-treated either with an anti-αvβ3 integrin antibody (Santa Cruz Laboratories #sc-7312) or with an equal amount of IgG (ICL #RS-90G1) for 30 minutes before the addition of 100 ng/ml MAGP2. The motility assay was then performed as described above.
(§4) To determine the effect of recMAGP2 on the HUVE cell motility, recMAGP2 was used as a chemoattractant. […] Similarly, exposing HUVE cells seeded onto Matrigel matrix to reMAGP2 stimulated a 2-fold increase in invasion (P<0.05) (FIG. 5D).

HUVE cells [3] = assay: HUVE cell invasion through Matrigel; assay type: cell-based, human; details: cells seeded onto Matrigel matrix; P<0.05
Procedure: (§5) HUVE cell invasion was measured by adding cells (5×10^4) to the top chamber of a BD Falcon HTS FluoroBlok insert with a PET membrane coated with a thin layer of Matrigel. To evaluate the effect of MAGP2 on HUVE cell proliferation, 1,000 HUVECs/well were plated in 8 wells of a 96-well plate in EBM2 with 2.0% FBS. The next day the media were removed and replaced with 0.2% FBS media with elute buffer control or with recombinant MAGP2 protein at 4.5 ng/ml. After 2 days, elute control or MAGP2 was added a second time. Cell number was quantified via MTT assay.
as §4

HUVE cells [4] = assay: HUVE cell survival under low serum (MTT assay); assay type: cell-based, human; details: 5 days, P<0.005
Procedure: as §5
In addition to motility and invasion, HUVE cell survival under low serum conditions was prolonged by recMAGP2.

FAK = FAK phosphorylation (tyrosine 407) western blot in HUVE cells; assay type: cell-based, human; details: 100 ng/ml, 30 minutes
Procedure: Western Blot Analysis. To assess FAK phosphorylation in HUVE cells, cells were plated on 60 mm^2 dishes treated with 100 ng/ml MAGP2 recombinant protein or elute buffer control. After 30 minutes the cells were washed with 4° C. PBS and lysed in RIPA buffer containing 0.1% SDS and proteinase inhibitors. Western blotting was then performed with 5 μg of protein under denaturing conditions on a 4-12% NuPAGE gel and transferred to a PVDF membrane. The membrane was blocked in 5% nonfat milk for 1 hr at RT, probed with a 1:1000 dilution of anti-FAK[pY^407] rabbit polyclonal 1° antibody (Biosource) for 2 hr at RT. The blot was washed 3 times for 5 min with TBST and probed with a 1:2000 dilution of goat anti-rabbit HRP conjugated 2° antibody (Amersham) for 1 hr at RT. The blot was washed 3 times for 10 min with TBST and bands were detected via chemiluminscence using an ECL kit (Amersham).
Since FAK is a mediator of αvβ3 signaling, the phosphorylation status of FAK in recMAGP2 treated cells was confirmed. Using a phosphorylation specific antibody recognizing tyrosine 407, a western blot comparing phospho-FAK to total FAK was completed for both treated and untreated HUVE cell isolates.

HUVE cells [5] = assay: Ca2+ oscillation in HUVE cells (fluo-4/AM, confocal microscope); assay type: cell-based, human
Procedure: To identify the mechanism underlying the stimulation of FAK by recMAGP2, Ca^2+ oscillation was assessed in treated HUVE cells. […] This may account in part for the enhanced motility and survival of HUVE cells as described in the pathway analysis.

HUVE cells [6] = assay: Affymetrix U133 Plus 2.0 microarray of recMAGP2 treated HUVE cells; assay type: cell-based, human; details: P<0.01 and fold-change ≧1.5; treated n=3 vs untreated n=3
From the text: The marked effect of recMAGP2 on HUVE cell behavior indicated a change in cellular regulation had taken place possibly affecting gene expression. To explore the consequences of recMAGP2 induced signaling, Affymetrix® U133 Plus 2.0 microarrays were completed for a series of recMAGP2 treated (n=3) and untreated (n=3) HUVE cell isolates. A total of 274 probe sets were identified for pathway analysis in cells exposed to recMAGP2 (P<0.01 and fold-change ≧1.5) (FIG. 6A). […] Deregulation of these genes may lead to a reduction in vessel integrity permitting endothelial cell migration and neovascularization.

Molecule	weight of the tumors ([1]; SKOV3 stably transfected, subcutaneous, nude mice, 4 weeks, vs empty vector, Mann-Witney U test p<0.05)	CD34 (microvessel density) in tumor tissues ([1]; immunolocalization of CD34+ blood vessels, FIG. 8A)	MAGP2 expression in tumor tissues ([1]; immunostaining, FIG. 8A)	adhesion of HUVE cells plated on recMAGP2 (αvβ3 integrin receptor) [fold]	A224 cell adhesion (A224 cells)	UCI107 cell adhesion (UCI107 cells)	OVCA429 cell survival (OVCA429 cells)	HUVE cell motility (HUVE cells [2])	increase in HUVE cell invasion (HUVE cells [3]) [fold]	HUVE cell survival under low serum conditions (HUVE cells [4])	phosphorylated FAK (tyrosine 407) versus total FAK (FAK)	[Ca2+]I levels (HUVE cells [5]; HUVE cells loaded with fluo-4/AM)	[Ca2+]I oscillation frequency (HUVE cells [5]; individual HUVE cells) [s/cycle]	probe sets identified in cells exposed to recMAGP2 (HUVE cells [6])
MAGP2 siRNA: siRNA 5′-ACCGGTTAAACAATGCATTCAT-3′ (sense; SEQ ID NO: 1) and 5′-ATGAATGCATTGTTTAACCGGC-3′ (antisense; SEQ ID NO: 2) (listed as DNA, chemistry not fully specified)	significantly decrease the weight	decreased	decreased MAGP2 expression											
purified recombinant MAGP2 (microfibril associated glycoprotein 2) (ligand, UniProt Q13361 22-173, looked up) IPLGVNSQRGDDVTQATPETFTEDPNLVNDPATDETVLAVLADIAPSTDDLASLSEKNTTAECWDEKFTCTRLYSVHRPVKQCIHQLCFTSLRRMYIVNKEICSRLVCKEHEAMKDELCRQMAGLPPRRLRRSNYFRLPPCENVDLQRPNGL				2.5	increase in adhesion	only a modest increase in adhesion at high concentrations	significant difference in survival	increased the motility of the cells in a dose dependent manner	2	prolonged	increase in phosphorylated FAK	immediate increase	100	274
